In patent EP4786496A1 (Nanjing Iaso Biotechnology Co., Ltd., dated 2026):

T1: BAFF-R on the surface of BAFF-R-positive cells (K562-BAFF-R, NALM6, RS4, MEC1, JEKO1) (human, UniProt Q96RJ3 1-184)
T1 sequence: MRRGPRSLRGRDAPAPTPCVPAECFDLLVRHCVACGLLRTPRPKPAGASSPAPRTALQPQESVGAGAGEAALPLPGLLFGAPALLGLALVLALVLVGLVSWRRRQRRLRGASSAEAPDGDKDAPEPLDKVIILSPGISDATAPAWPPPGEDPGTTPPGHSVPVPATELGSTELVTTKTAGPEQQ

T2: His-tagged human BAFF-R antigen (BAR-H52H3, Acro) (human, UniProt Q96RJ3 7-71, limits assumed)
T2 construct: Bought protein used in BLI; not shown: His tag
T2 sequence: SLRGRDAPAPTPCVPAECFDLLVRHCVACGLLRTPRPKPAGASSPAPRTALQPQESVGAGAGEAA

B1: 0205-1, VH-Fab-Fc 1+1 α-BAFF-R VH×α-CD3 Fab bispecific antibody (bispecific antibody, human IgG4 S228P, lambda, F234A L235A)
heavy: EVQLVESGGGLVQPKGSLKLSCAASGFTFNTYAMNWVRQAPGKGLEWVARIRSKYNNYATYYADSVKDRFTISRDDSQSILYLQMNNLKTEDTAMYYCVRHGNFGNSYVSWFAYWGQGTLVTVSSASTKGPSVFPLAPCSRSTSESTAALGCLVKDYFPEPVTVSWNSGALTSGVHTFPAVLQSSGLYSLSSVVTVPSSSLGTKTYTCNVDHKPSNTKVDKRVESKYGPPCPPCPAPEAAGGPSVFLFPPKPKDTLMISRTPEVTCVVVDVSQEDPEVQFNWYVDGVEVHNAKTKPREEQFNSTYRVVSVLTVLHQDWLNGKEYKCKVSNKGLPSSIEKTISKAKGQPREPQVYTLPPCQEEMTKNQVSLWCLVKGFYPSDIAVEWESNGQPENNYKTTPPVLDSDGSFFLYSRLTVDKSRWQEGNVFSCSVMHEALHNHYTQKSLSLSLGK
light: QAVVTQESALTTSPGETVTLTCRSSTGAVTTSNYANWVQEKPDHLFTGLIGGTNKRAPGVPARFSGSLIGDKAALTITGAQTEDEAIYFCALWYSNLWVFGGGTKLTVLGQPKAAPSVTLFPPSSEELQANKATLVCLISDFYPGAVTVAWKADSSPVKAGVETTTPSKQSNNKYAASSYLSLTPEQWKSHKSYSCQVTHEGSTVEKTVAPTECS
chain: EVQLVESGGGVVQPGRSLRLTCAASGFTFSTSGMYWIRQAPGKGLEWVSYISSSSSTIYYADSVKGRFTISRDNSKNTLYLQMNSLRAEDTAVYYCVTQSCGAGKCYPGVWGQGTTVTVSSESKYGPPCPPCPAPEAAGGPSVFLFPPKPKDTLMISRTPEVTCVVVDVSQEDPEVQFNWYVDGVEVHNAKTKPREEQFNSTYRVVSVLTVLHQDWLNGKEYKCKVSNKGLPSSIEKTISKAKGQPREPQVCTLPPSQEEMTKNQVSLSCAVKGFYPSDIAVEWESNGQPENNYKTTPPVLDSDGSFFLVSRLTVDKSRWQEGNVFSCSVMHEALHNHYTQKSLSLSLGK
notes: IgG4 Fc with S228P/F234A/L235A, knobs on the CD3 side, holes on the BAFF-R side
B2: 0205-2, VH2-Fab-Fc 2+1 α-BAFF-R VH×α-CD3 Fab bispecific antibody (bispecific antibody)
heavy 1: EVQLVESGGGVVQPGRSLRLTCAASGFTFSTSGMYWIRQAPGKGLEWVSYISSSSSTIYYADSVKGRFTISRDNSKNTLYLQMNSLRAEDTAVYYCVTQSCGAGKCYPGVWGQGTTVTVSSGGGGSGGGGSEVQLVESGGGLVQPKGSLKLSCAASGFTFNTYAMNWVRQAPGKGLEWVARIRSKYNNYATYYADSVKDRFTISRDDSQSILYLQMNNLKTEDTAMYYCVRHGNFGNSYVSWFAYWGQGTLVTVSSASTKGPSVFPLAPCSRSTSESTAALGCLVKDYFPEPVTVSWNSGALTSGVHTFPAVLQSSGLYSLSSVVTVPSSSLGTKTYTCNVDHKPSNTKVDKRVESKYGPPCPPCPAPEAAGGPSVFLFPPKPKDTLMISRTPEVTCVVVDVSQEDPEVQFNWYVDGVEVHNAKTKPREEQFNSTYRVVSVLTVLHQDWLNGKEYKCKVSNKGLPSSIEKTISKAKGQPREPQVYTLPPCQEEMTKNQVSLWCLVKGFYPSDIAVEWESNGQPENNYKTTPPVLDSDGSFFLYSRLTVDKSRWQEGNVFSCSVMHEALHNHYTQKSLSLSLGK
light: B1 light
heavy 2: B1 chain
notes: To be checked
B3: 0205-3, VH2-Fab2-Fc 2+2 α-BAFF-R VH×α-CD3 Fab bispecific antibody (bispecific antibody)
heavy: not shown
light: B1 light
notes: To be checked
B4: SP34 monoclonal antibody (anti-CD3) (antibody, human IgG4 S228P, lambda, V domains shown)
VH: EVQLVESGGGLVQPKGSLKLSCAASGFTFNTYAMNWVRQAPGKGLEWVARIRSKYNNYATYYADSVKDRFTISRDDSQSILYLQMNNLKTEDTAMYYCVRHGNFGNSYVSWFAYWGQGTLVTVSS
VL: QAVVTQESALTTSPGETVTLTCRSSTGAVTTSNYANWVQEKPDHLFTGLIGGTNKRAPGVPARFSGSLIGDKAALTITGAQTEDEAIYFCALWYSNLWVFGGGTKLTVLG
notes: also called α-CD3 monoclonal antibody

Each binder was assayed against T1, BAFF-R on the surface of … (assay: cell-based or functional assay).
For B1, the “TDCC reporter gene cell activation by Nalm6, EC50” value was 3.2 nM and the “TDCC reporter gene cell activation by Nalm6, top” value was 381. B2 was tested, and the “TDCC reporter gene cell activation by Nalm6, EC50” value was 0.068 nM and the “TDCC reporter gene cell activation by Nalm6, top” value was 2430. With B3 the “TDCC reporter gene cell activation by Nalm6, EC50” value was 0.021 nM and the “TDCC reporter gene cell activation by Nalm6, top” value was 1870.

Biological target: T1, BAFF-R on the surface of …
Assay: cell-based or functional assay
Remark: another data set of the same source
For B1, the “TDCC reporter gene cell activation by K562-BAFF-R, EC50” value was 0.059 nM and the “TDCC reporter gene cell activation by K562-BAFF-R, top” value was 9430. B2 was tested, and the “TDCC reporter gene cell activation by K562-BAFF-R, EC50” value was 0.054 nM and the “TDCC reporter gene cell activation by K562-BAFF-R, top” value was 12300. With B3 the “TDCC reporter gene cell activation by K562-BAFF-R, EC50” value was 0.041 nM and the “TDCC reporter gene cell activation by K562-BAFF-R, top” value was 10900.

What follows are binders tested against T3, His-tagged human CD3E&D (CDD-H52W1, Acro) (human, UniProt P07766 23-126; P04234 22-105) (assay: BLI (ForteBio Octet), His-tagged antigen on HIS1K sensor, antibody in solution).
T3 construct: Bought His-tagged heterodimer; also called CD3E&D heterodimer complex
T3 sequence (P07766 23-126, chain 1 of 2): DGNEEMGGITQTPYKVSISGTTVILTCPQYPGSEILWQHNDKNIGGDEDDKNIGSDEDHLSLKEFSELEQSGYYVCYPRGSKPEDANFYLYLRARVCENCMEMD
T3 sequence (P04234 22-105, chain 2 of 2): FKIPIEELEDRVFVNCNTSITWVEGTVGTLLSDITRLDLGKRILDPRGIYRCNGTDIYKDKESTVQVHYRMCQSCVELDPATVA
B1 gave a Kd of 10.7 nM, a koff of 0.00811 s⁻¹ and a kon of 759000 M⁻¹ s⁻¹. In the case of B2, the Kd is reported as 10.3 nM, the koff is reported as 0.00314 s⁻¹ and the kon is reported as 306000 M⁻¹ s⁻¹. Binder B3 has a Kd of 10.6 nM, a koff of 0.0032 s⁻¹ and a kon of 302000 M⁻¹ s⁻¹. Binder B4 has a Kd of 6.38 nM, a koff of 0.00301 s⁻¹ and a kon of 473000 M⁻¹ s⁻¹.

The binders below were run against T4, His-tagged human CD3E&G (CDG-H52W6, Acro) (human, UniProt P07766 23-126; P09693 23-111) in the same assay as above.
T4 construct: Bought His-tagged heterodimer; also called CD3E&G heterodimer complex
T4 sequence (P07766 23-126, chain 1 of 2): as the sequence (P07766 23-126, chain 1 of 2) above
T4 sequence (P09693 23-111, chain 2 of 2): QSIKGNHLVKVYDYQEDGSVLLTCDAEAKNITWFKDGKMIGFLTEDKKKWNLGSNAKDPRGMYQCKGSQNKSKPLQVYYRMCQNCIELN
B1 gave a Kd of 6.68 nM, a koff of 0.0278 s⁻¹ and a kon of 4.16e+06 M⁻¹ s⁻¹. With B2 the Kd was 11.1 nM, the koff was 0.00291 s⁻¹ and the kon was 262000 M⁻¹ s⁻¹. For B3, the Kd was 9.03 nM, the koff was 0.00251 s⁻¹ and the kon was 277000 M⁻¹ s⁻¹. For B4, the Kd was 7.87 nM, the koff was 0.0029 s⁻¹ and the kon was 369000 M⁻¹ s⁻¹.

Biological target: T1, BAFF-R on the surface of …
Assay: cell-based or functional assay
Remark: another data set of the same source
In the case of B1, the “TDCC reporter gene cell activation by Mec-1, EC50” value is reported as 7.31 nM and the “TDCC reporter gene cell activation by Mec-1, top” value is reported as 793. For B2, the “TDCC reporter gene cell activation by Mec-1, EC50” value was 0.5 nM and the “TDCC reporter gene cell activation by Mec-1, top” value was 2930. B3 was tested, and the “TDCC reporter gene cell activation by Mec-1, EC50” value was 0.047 nM and the “TDCC reporter gene cell activation by Mec-1, top” value was 1490.

Biological target: T1, BAFF-R on the surface of …
Assay: cell-based or functional assay
Remark: another data set of the same source
B1 was tested, and the “killing of Jeko-1 cells by PBMC (Donor 301C), 24hr, top (%)” value (shortened to “killing … (Donor 301C), 24hr, top (%)”) was -22.3% and the “killing of Jeko-1 cells by PBMC (Donor 301C), 48hr, top (%)” value (shortened to “killing … (Donor 301C), 48hr, top (%)”) was -12.2%. B2 was tested, and the “killing of Jeko-1 cells by PBMC (Donor 301C), 24hr, EC50(pM)” value was 52.8 pM, the “killing … (Donor 301C), 24hr, top (%)” value was 57.8% and the “killing of Jeko-1 cells by PBMC (Donor 301C), 48hr, EC50(pM)” value was 9.74 pM. The “killing … (Donor 301C), 48hr, top (%)” value was 99.9%. In the case of B3, the “killing of Jeko-1 cells by PBMC (Donor 301C), 24hr, EC50(pM)” value is reported as 18 pM, the “killing … (Donor 301C), 24hr, top (%)” value is reported as 28.5% and the “killing of Jeko-1 cells by PBMC (Donor 301C), 48hr, EC50(pM)” value is reported as 8.78 pM. The “killing … (Donor 301C), 48hr, top (%)” value was 102%.

The binders below were run against T2, His-tagged human BAFF-R antigen … (assay: BLI (ForteBio Octet), His-tagged antigen on HIS1K sensor, antibody in solution).
B1 gave a Kd of 1.78 nM, a koff of 0.00245 s⁻¹ and a kon of 1.38e+06 M⁻¹ s⁻¹. For B2, the Kd was 1.12 nM, the koff was 0.000976 s⁻¹ and the kon was 875000 M⁻¹ s⁻¹. Binder B3 has a Kd of 1.27 nM, a koff of 0.00136 s⁻¹ and a kon of 1.07e+06 M⁻¹ s⁻¹.

Biological target: T1, BAFF-R on the surface of …
Assay: cell-based or functional assay
Remark: another data set of the same source
With B1 the “killing of Jeko-1 cells by PBMC (Donor 605C), 24hr, top (%)” value (shortened to “killing … (Donor 605C), 24hr, top (%)”) was -12.6% and the “killing of Jeko-1 cells by PBMC (Donor 605C), 48hr, top (%)” value (shortened to “killing … (Donor 605C), 48hr, top (%)”) was -12.8%. With B2 the “killing of Jeko-1 cells by PBMC (Donor 605C), 24hr, EC50(pM)” value was 13.1 pM, the “killing … (Donor 605C), 24hr, top (%)” value was 39% and the “killing of Jeko-1 cells by PBMC (Donor 605C), 48hr, EC50(pM)” value was 3.58 pM. For the same binder, the “killing … (Donor 605C), 48hr, top (%)” value was 101%. In the case of B3, the “killing of Jeko-1 cells by PBMC (Donor 605C), 24hr, EC50(pM)” value is reported as 2.48 pM, the “killing … (Donor 605C), 24hr, top (%)” value is reported as 6.34% and the “killing of Jeko-1 cells by PBMC (Donor 605C), 48hr, EC50(pM)” value is reported as 2.81 pM. For the same binder, the “killing … (Donor 605C), 48hr, top (%)” value was 102%.

Biological target: T1, BAFF-R on the surface of …
Assay: cell-based or functional assay
Remark: another data set of the same source
With B1 the “TDCC reporter gene cell activation by Jeko-1, EC50” value was 11.7 nM and the “TDCC reporter gene cell activation by Jeko-1, top” value was 864. With B2 the “TDCC reporter gene cell activation by Jeko-1, EC50” value was 0.23 nM and the “TDCC reporter gene cell activation by Jeko-1, top” value was 1650. With B3 the “TDCC reporter gene cell activation by Jeko-1, EC50” value was 0.046 nM and the “TDCC reporter gene cell activation by Jeko-1, top” value was 1230.
